Literature values in patent US20250222125A1, “Anti-FGFR2b Antibodies, Conjugates and Methods of Use” (BeiGene, Ltd., priority 2024, published 2025).

Details: clinical trial, terminated early; cited from earlier work

B1: Aprutumab ixadotin: FGFR2 antibody conjugated to auristatin (conjugate, chains of the INN, looked up)
VH: EVQLLESGGGLVQPGGSLRLSCAASGFTFSSYAMSWVRQAPGKGLEWVSAISGSGTSTYYADSVKGRFTISRDNSKNTLYLQMNSLRAEDTAVYYCARVRYNWNHGDWFDPWGQGTLVTVSS
VL: QSVLTQPPSASGTPGQRVTISCSGSSSNIGNNYVSWYQQLPGTAPKLLIYENYNRPAGVPDRFSGSKSGTSASLAISGLRSEDEADYYCSSWDDSLNYWVFGGGTKLTVL
modifications: auristatin payload conjugate
notes: FGFR2 antibody conjugated to auristatin
For B1, the “tolerability in clinical testing” value is given as “poorly tolerated”.
